Values of other authors as cited in publication PMC9884707.
pKd: −log10 of the molar value.

Target: SHARPIN PH domain (20-121) (Homo sapiens) (UniProt Q9H0F6)

SHARPIN PH domain (20-121) (from UniProt Q9H0F6)
pKd: 3.91
